Laboratory results: publication PMC4313731 (Chemistry & biology, 2013)

What was measured:
PhnY = PhnY (Sinorhizobium meliloti, UniProt Q92UV7); experiment: X-ray crystal structure of ternary complex with NAD+, […] Å; assay type: binding; details: NAD+ bound; active site, non-covalent
[1] = substrate: O=CC(O)COP(=O)(O)O; experiment: steady-state kinetics, NADP+ reduction monitored; assay type: biochemical, Streptococcus mutans; details: racemic G3P, saturating NADP+, 50 mM HEPES pH 8.0, 5 mM DTT
[2] = substrate: O=CCCP(=O)(O)O; experiment: steady-state kinetics, NADP+ reduction monitored; assay type: biochemical, Streptococcus mutans; details: saturating NADP+, 50 mM HEPES pH 8.0, 5 mM DTT
[3] = substrate: O=CCP(=O)(O)O; experiment: steady-state kinetics, NAD+ reduction monitored; assay type: biochemical, Sinorhizobium meliloti; details: saturating NAD+, 50 mM HEPES pH 7.5, 10 mM MgSO4, 30 °C
[4] = substrate: O=CCCP(=O)(O)O; experiment: steady-state kinetics, NAD+ reduction monitored; assay type: biochemical, Sinorhizobium meliloti; details: 50 mM HEPES pH 7.5, 10 mM MgSO4, 30 °C

Molecule: O=C(O)CP(=O)(O)O [PnA]
- X-ray crystal structure of ternary complex with NAD+, 2.07 Å (PhnY): cocrystal structure of PhnY in complex with NAD^+ and PnA shows clear and continuous density

B1: GAPDH (Streptococcus mutans UA159) (protein)
chain: MTKQYKNYVNGEWKLSENEIKIYEPASGAELGSVPAMSTEEVDYVYASAKKAQPAWRSLSYIERAAYLHKVADILMRDKEKIGAVLSKEVAKGYKSAVSEVVRTAEIINYAAEEGLRMEGEVLEGGSFEAASKKKIAVVRREPVGLVLAISPFNYPVNLAGSKIAPALIAGNVIAFKPPTQGSISGLLLAEAFAEAGLPAGVFNTITGRGSEIGDYIVEHQAVNFINFTGSTGIGERIGKMAGMRPIMLELGGKDSAIVLEDADLELTAKNIIAGAFGYSGQRCTAVKRVLVMESVADELVEKIREKVLALTIGNPEDDADITPLIDTKSADYVEGLINDANDKGAAALTEIKREGNLICPILFDKVTTDMRLAWEEPFGPVLPIIRVTSVEEAIEISNKSEYGLQASIFTNDFPRAFGIAEQLEVGTVHINNKTQRGTDNFPFLGAKKSGAGIQGVKYSIEAMTTVKSVVFDIK
- Km [1]: 25 ± 7 µM
- kcat [1]: 22 ± 2 s⁻¹
- Km [2]: 1500 ± 300 µM
- kcat [2]: 0.038 ± 0.022 s⁻¹

B2: PhnY (Sinorhizobium meliloti 1021; R447A) (protein)
chain: MTNAEVTIAVRHEPMRIAGRLVDTDDRVEVRYPWNDTVVGTVPAGRAEHAREAFAIAAAYQPKLTRYERQKILLATAEALAARKEEISDVITLELGISKADSLYEVGRAFDVFTLAGQMCIRDDGEIFSCDLTPHGKARKIFTMREPLTAISAITPFNHPLNMVAHKVAPAIATNNCVVVKPTELTPMTALLLADILYEAGLPPEMLSVVTGWPADIGMEMITNPHVDLVTFTGSVPVGKLIAANAHYKRQVLELGGNDPLIILNDLSDDDLARAADLAVAGATKNSGQRCTAVKRILCQESVADRFVPLVLERAKRLRFGDPMDRSTDLGTVIHEKAAALFEERVMRAAEEGADILYHPGRSGALLPPIVVDRVPHQSDLVLEETFGPIIPIVRVPDDDDATITLSNSTAFGLSSGVCTNDYRRMQKYIAGLKVGTVNIWEVPGYAIEMSPFGGIKDSGNGYKEGVIEAMKSFTNVKTFSLPWP
- Km [3]: 150 ± 20 µM
- kcat [3]: 0.076 ± 0.003 s⁻¹

B3: PhnY (Sinorhizobium meliloti 1021; R290A) (protein)
chain: MTNAEVTIAVRHEPMRIAGRLVDTDDRVEVRYPWNDTVVGTVPAGRAEHAREAFAIAAAYQPKLTRYERQKILLATAEALAARKEEISDVITLELGISKADSLYEVGRAFDVFTLAGQMCIRDDGEIFSCDLTPHGKARKIFTMREPLTAISAITPFNHPLNMVAHKVAPAIATNNCVVVKPTELTPMTALLLADILYEAGLPPEMLSVVTGWPADIGMEMITNPHVDLVTFTGSVPVGKLIAANAHYKRQVLELGGNDPLIILNDLSDDDLARAADLAVAGATKNSGQACTAVKRILCQESVADRFVPLVLERAKRLRFGDPMDRSTDLGTVIHEKAAALFEERVMRAAEEGADILYHPGRSGALLPPIVVDRVPHQSDLVLEETFGPIIPIVRVPDDDDATITLSNSTAFGLSSGVCTNDYRRMQKYIAGLKVGTVNIWEVPGYRIEMSPFGGIKDSGNGYKEGVIEAMKSFTNVKTFSLPWP
- Km [3]: 5.1 ± 0.6 µM
- kcat [3]: 0.12 ± 0.003 s⁻¹

B4: PhnY (Sinorhizobium meliloti 1021) (protein)
chain: MTNAEVTIAVRHEPMRIAGRLVDTDDRVEVRYPWNDTVVGTVPAGRAEHAREAFAIAAAYQPKLTRYERQKILLATAEALAARKEEISDVITLELGISKADSLYEVGRAFDVFTLAGQMCIRDDGEIFSCDLTPHGKARKIFTMREPLTAISAITPFNHPLNMVAHKVAPAIATNNCVVVKPTELTPMTALLLADILYEAGLPPEMLSVVTGWPADIGMEMITNPHVDLVTFTGSVPVGKLIAANAHYKRQVLELGGNDPLIILNDLSDDDLARAADLAVAGATKNSGQRCTAVKRILCQESVADRFVPLVLERAKRLRFGDPMDRSTDLGTVIHEKAAALFEERVMRAAEEGADILYHPGRSGALLPPIVVDRVPHQSDLVLEETFGPIIPIVRVPDDDDATITLSNSTAFGLSSGVCTNDYRRMQKYIAGLKVGTVNIWEVPGYRIEMSPFGGIKDSGNGYKEGVIEAMKSFTNVKTFSLPWP
- Km [4]: 3300 ± 100 µM
- kcat [4]: 1.5 ± 0.1 s⁻¹

B5: PhnY (Sinorhizobium meliloti 1021; R108A) (protein)
chain: MTNAEVTIAVRHEPMRIAGRLVDTDDRVEVRYPWNDTVVGTVPAGRAEHAREAFAIAAAYQPKLTRYERQKILLATAEALAARKEEISDVITLELGISKADSLYEVGAAFDVFTLAGQMCIRDDGEIFSCDLTPHGKARKIFTMREPLTAISAITPFNHPLNMVAHKVAPAIATNNCVVVKPTELTPMTALLLADILYEAGLPPEMLSVVTGWPADIGMEMITNPHVDLVTFTGSVPVGKLIAANAHYKRQVLELGGNDPLIILNDLSDDDLARAADLAVAGATKNSGQRCTAVKRILCQESVADRFVPLVLERAKRLRFGDPMDRSTDLGTVIHEKAAALFEERVMRAAEEGADILYHPGRSGALLPPIVVDRVPHQSDLVLEETFGPIIPIVRVPDDDDATITLSNSTAFGLSSGVCTNDYRRMQKYIAGLKVGTVNIWEVPGYRIEMSPFGGIKDSGNGYKEGVIEAMKSFTNVKTFSLPWP
- Km [3]: 9.7 ± 0.8 µM
- kcat [3]: 0.051 ± 0.001 s⁻¹

B6: PhnY (Sinorhizobium meliloti 1021; N158A) (protein)
chain: MTNAEVTIAVRHEPMRIAGRLVDTDDRVEVRYPWNDTVVGTVPAGRAEHAREAFAIAAAYQPKLTRYERQKILLATAEALAARKEEISDVITLELGISKADSLYEVGRAFDVFTLAGQMCIRDDGEIFSCDLTPHGKARKIFTMREPLTAISAITPFAHPLNMVAHKVAPAIATNNCVVVKPTELTPMTALLLADILYEAGLPPEMLSVVTGWPADIGMEMITNPHVDLVTFTGSVPVGKLIAANAHYKRQVLELGGNDPLIILNDLSDDDLARAADLAVAGATKNSGQRCTAVKRILCQESVADRFVPLVLERAKRLRFGDPMDRSTDLGTVIHEKAAALFEERVMRAAEEGADILYHPGRSGALLPPIVVDRVPHQSDLVLEETFGPIIPIVRVPDDDDATITLSNSTAFGLSSGVCTNDYRRMQKYIAGLKVGTVNIWEVPGYRIEMSPFGGIKDSGNGYKEGVIEAMKSFTNVKTFSLPWP
- Km [3]: 29 ± 9 µM
- kcat [3]: 0.010 ± 0.001 s⁻¹
